Values of other authors as cited in PMC2939181.

Biological target: CPT-1 (UniProt P50416)
Experiment: FRET

Chain of UniProt P50416 (P50416 2-773): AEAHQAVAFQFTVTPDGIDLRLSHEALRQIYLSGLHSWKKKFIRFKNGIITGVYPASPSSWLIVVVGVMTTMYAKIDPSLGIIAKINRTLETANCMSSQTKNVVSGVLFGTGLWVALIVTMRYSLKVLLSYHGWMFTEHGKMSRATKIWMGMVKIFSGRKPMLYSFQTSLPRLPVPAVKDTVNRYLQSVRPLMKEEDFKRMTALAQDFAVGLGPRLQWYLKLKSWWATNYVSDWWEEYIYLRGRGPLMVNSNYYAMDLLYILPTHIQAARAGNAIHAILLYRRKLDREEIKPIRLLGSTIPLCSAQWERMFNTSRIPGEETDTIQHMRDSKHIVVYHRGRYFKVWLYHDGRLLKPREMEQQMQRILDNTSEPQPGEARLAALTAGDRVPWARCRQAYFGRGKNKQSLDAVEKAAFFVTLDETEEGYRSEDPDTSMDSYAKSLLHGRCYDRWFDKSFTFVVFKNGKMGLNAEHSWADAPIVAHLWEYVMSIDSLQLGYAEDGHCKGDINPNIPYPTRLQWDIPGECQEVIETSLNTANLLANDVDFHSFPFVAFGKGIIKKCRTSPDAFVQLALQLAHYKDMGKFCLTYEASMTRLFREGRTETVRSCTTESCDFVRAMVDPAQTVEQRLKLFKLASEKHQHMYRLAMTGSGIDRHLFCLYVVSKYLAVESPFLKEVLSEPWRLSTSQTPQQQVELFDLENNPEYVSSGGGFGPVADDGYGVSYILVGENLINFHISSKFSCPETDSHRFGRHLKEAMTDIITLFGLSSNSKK

Substance: L-FABP (from UniProt P07148)
- Kd: 2.1 nM
